Source: article PMC2442654 (PLoS ONE, 2008)

Target: the molecule itself
Experiment: thioflavin T fluorescence + AFM (de novo amyloid fibril formation)

B1: recombinant mouse full-length prion protein, MoPrP (23-231), unexposed (natural protein)
chain: not shown
B1: binds.
